These results are taken from PMC7224192, “MYC transcription activation mediated by OCT4 as a mechanism of resistance to 13-cisRA-mediated differentiation in neuroblastoma”.

The target of data set [1] is T1, OCT4 (human, UniProt Q01860 1-360). The experiment in a line: EMSA; mono-OCT4 complex; 20 fmol probe; Panomics EMSA Gel Shift Kit per manufacturer; OCT4 0.5 mg as printed (likely ug), biotin probe 20 fmol; buffer, pH and temperature not stated. Particulars: protein: commercial; label: biotin at 5' end.
T1 sequence (Q01860 whole entry): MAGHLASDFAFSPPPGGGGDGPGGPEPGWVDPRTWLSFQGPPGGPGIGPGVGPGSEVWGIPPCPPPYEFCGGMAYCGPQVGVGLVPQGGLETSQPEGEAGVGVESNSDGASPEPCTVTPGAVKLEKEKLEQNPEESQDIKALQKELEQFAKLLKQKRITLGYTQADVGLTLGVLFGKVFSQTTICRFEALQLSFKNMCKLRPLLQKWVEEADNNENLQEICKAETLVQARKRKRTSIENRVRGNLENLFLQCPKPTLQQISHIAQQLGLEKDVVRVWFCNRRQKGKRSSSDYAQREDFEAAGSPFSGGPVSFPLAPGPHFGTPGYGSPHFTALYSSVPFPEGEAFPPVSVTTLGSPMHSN
For data set [2], the target named is T1, OCT4. As to the kind of experiment: EMSA; mono- and di-OCT4 complexes; 20 fmol probe; Panomics EMSA Gel Shift Kit per manufacturer; OCT4 0.5 mg as printed (likely ug), biotin probe 20 fmol; buffer, pH and temperature not stated. As to conditions: protein: commercial; label: biotin at 5' end.

B1: Biotin-MYC-1173/-1145 WT (OBS2) (dsDNA)
DNA 1: ACAAATGCAATGGGAGTTTATTCATAAC
DNA 2: GTTATGAATAAACTCCCATTGCATTTGT
Turning to B1, in the data set with OCT4 [1], the binding result is “binds”.

B2: Biotin-MYC-1209/-1166 WT (OBS1) (dsDNA)
DNA 1: CTGTGCATACATAATGCATAATACATGACTCCCCCCAACAAATGC
DNA 2: GCATTTGTTGGGGGGAGTCATGTATTATGCATTATGTATGCACAG
As to B2, the binding result in the data set with OCT4 [2] is on record as “binds”.

B3: Biotin-MYC-1209/-1140 WT (OBS1+OBS2) (dsDNA)
DNA 1: CTGTGCATACATAATGCATAATACATGACTCCCCCCAACAAATGCAATGGGAGTTTATTCATAACGCGCT
DNA 2: AGCGCGTTATGAATAAACTCCCATTGCATTTGTTGGGGGGAGTCATGTATTATGCATTATGTATGCACAG
Regarding B3, the binding result in the data set with OCT4 [2] is “binds”.
